Where no end group is shown, it is not given here. [ ]: non-standard residue; d: D form. NMeE = CN[C@@H](CCC(=O)O)C(=O)O
Molecular target: ex vivo seeds extracted from the hearts of eight ATTR patients
Test: cell-based or functional assay

RRRRHVAHPFV[NMeE]FTE [TabF2] was tested. Which peptide concentration giving full inhibition of amyloid seeding (tested as the cocktail TabFH2) did it give?
Its peptide concentration giving full inhibition of amyloid seeding (tested as the cocktail TabFH2) is 360 µM.

Reference: patent US20200010507A1
